Experimental data as given in US20200277339A1.

Target: recombinant purified fragment of TLR5 ectodomain of fish origin (fish)
Experiment: competition fluorescence polarization, cell-free

Substance: CBLB502 (ligand)
- Relative EC50 vs 502, Binding (FP): 1 fold vs 502
